Experimental data from patent publication US6982082 (Harvard, dated 2006).

Columns and labels:
[1] = molecular target: CypA wild type with N-terminal FLAG epitope tag, expressed from pBJ5 in Jurkat cells (UniProt P62937 1-165); assay: cell-based or functional assay
[2] = molecular target: CypAgtm (S99T, F113G, C115M) with N-terminal FLAG epitope tag, expressed from pBJ5 in Jurkat cells (UniProt P62937 1-165); assay: cell-based or functional assay
CypAgtm (S99T, F113G, C115M) with N-terminal FLAG epitope tag, expressed from pBJ5 in Jurkat cells, sequence (P62937 whole entry S99T/F113G/C115M): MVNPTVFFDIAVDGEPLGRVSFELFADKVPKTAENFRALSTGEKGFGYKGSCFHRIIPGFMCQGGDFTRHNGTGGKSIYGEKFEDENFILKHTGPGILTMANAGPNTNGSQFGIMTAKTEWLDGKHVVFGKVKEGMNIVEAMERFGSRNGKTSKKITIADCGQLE

CypA wild type with N-terminal FLAG epitope tag, expressed from pBJ5 in Jurkat cells, sequence (P62937 whole entry): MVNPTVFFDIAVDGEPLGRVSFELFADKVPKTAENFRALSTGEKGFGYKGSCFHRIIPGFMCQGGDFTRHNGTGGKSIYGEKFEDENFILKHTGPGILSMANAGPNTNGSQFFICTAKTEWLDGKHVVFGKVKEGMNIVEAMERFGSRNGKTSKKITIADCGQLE

B1: alpha-cyclopentyl, sarcosine11-CsA (CpSar11-CsA) (peptide)
peptide: XXXXXVXAXXX
modifications: head-to-tail cyclic undecapeptide made by cyclising linear peptide 11; residues as printed: CpSar (L-alpha-cyclopentylsarcosine, position 11 of CsA)-MeBmt-Abu-Sar-MeLeu-Val-MeLeu-Ala-D-Ala-MeLeu-MeLeu (N-methylated residues, D-Ala, Abu, MeBmt)
IC50 in Cellular NFAT-Signalling [1]: > 400 nM
IC50 in Cellular NFAT-Signalling [2]: 25 nM
